Reference: patent US20170152286A1
Positions of bridges follow the written chain, without caps; N, C: chain ends. Non-standard residues stand in square brackets, D forms with d. No end group written: not given here. Lys(5-OH) = 5-hydroxyl lysine

Biological target: MAGUK GK domain
Test: ITC

B1: K(OH)D lactam-type stapled peptide (2), i, i+4 stapled peptide made from linear peptide Ala-Arg-Arg-Asp(salicylaldehyde ester)-Glu-Tyr-Leu-Lys(5-OH)-Ala-Ile-Gln (peptide)
peptide: ARRDEYL[Lys(5-OH)]AIQ-NH2
modifications: lactam 4-8
B1 was tested, and the Kd was 5.9 µM.
